Laboratory results reported in paper PMC10994351.

Legend:
[1] = target: [L8A/F13A]myrArf1 (human) (UniProt P84077)
[2] = target: wild-type myristoylated Arf1 (WT myrArf1) (human) (UniProt P84077)
[L8K]myrArf1 (human) = [L8K]myrArf1 (human) (UniProt P84077)
[L8A]myrArf1 (human) = [L8A]myrArf1 (human) (UniProt P84077)
[F13A]myrArf1 (human) = [F13A]myrArf1 (human) (UniProt P84077)

Q: How did the C50 (nM) of the GAP assay: ASAP1 PZA needed for 50% of maximum hydrolysis of [alpha-32P]GTP bound to myrArf1, LUVs with PIP2, 30°C, 3 min [1] turn out when “PH, Arf GAP, and ankyrin repeats (PZA construct) of ASAP1, His-tagged (domain or fragment)” was run?
A: 0.7 nM

Q: And the C50 (nM) of the GAP assay: ASAP1 PZA needed for 50% of maximum hydrolysis of [alpha-32P]GTP bound to myrArf1, LUVs with PIP2, 30°C, 3 min [2]?
A: 0.79 nM

Q: And the C50 (nM) of the GAP assay: ASAP1 PZA needed for 50% of maximum hydrolysis of [alpha-32P]GTP bound to myrArf1, LUVs with PIP2, 30°C, 3 min ([L8K]myrArf1 (human))?
A: 0.84 nM

Q: And the C50 (nM) of the GAP assay: ASAP1 PZA needed for 50% of maximum hydrolysis of [alpha-32P]GTP bound to myrArf1, LUVs with PIP2, 30°C, 3 min ([L8A]myrArf1 (human))?
A: 0.84 nM

Q: And the C50 (nM) of the GAP assay: ASAP1 PZA needed for 50% of maximum hydrolysis of [alpha-32P]GTP bound to myrArf1, LUVs with PIP2, 30°C, 3 min ([F13A]myrArf1 (human))?
A: 2100 nM

Q: With “full-length AGAP1, His-tagged (from UniProt Q9UPQ3 1-857) (enzyme)” as the substance, how does the C50 (nM) of the GAP assay: full-length AGAP1 needed for 50% of maximum hydrolysis of [alpha-32P]GTP bound to myrArf1, LUVs with PIP2, 30°C, 3 min [2] read?
A: 1.6 nM

Q: And the C50 (nM) of the GAP assay: full-length AGAP1 needed for 50% of maximum hydrolysis of [alpha-32P]GTP bound to myrArf1, LUVs with PIP2, 30°C, 3 min ([F13A]myrArf1 (human))?
A: 340 nM

Q: With “tandem PH domains, Arf GAP, and ankyrin repeats of ARAP1 (PPZA construct), His-tagged (domain or fragment)” as the substance, how does the C50 (nM) of the GAP assay: ARAP1 PPZA needed for 50% of maximum hydrolysis of [alpha-32P]GTP bound to myrArf1, LUVs with PIP3, 30°C, 3 min [2] read?
A: 0.14 nM

Q: And the C50 (nM) of the GAP assay: ARAP1 PPZA needed for 50% of maximum hydrolysis of [alpha-32P]GTP bound to myrArf1, LUVs with PIP3, 30°C, 3 min ([F13A]myrArf1 (human))?
A: 210 nM
